B1: LIM/homeobox protein Lhx4 (Homo sapiens), Q969G2 (parent)
chain: MMQSATVPAEGAVKGLPEMLGVPMQQIPQCAGCNQHILDKFILKVLDRHWHSSCLKCADCQMQLADRCFSRAGSVYCKEDFFKRFGTKCTACQQGIPPTQVVRKAQDFVYHLHCFACIICNRQLATGDEFYLMEDGRLVCKEDYETAKQNDDSEAGAKRPRTTITAKQLETLKNAYKNSPKPARHVREQLSSETGLDMRVVQVWFQNRRAKEKRLKKDAGRHRWGQFYKSVKRSRGSSKQEKESSAEDCGVSDSELSFREDQILSELGHTNRIYGNVGDVTGGQLMNGSFSMDGTGQSYQDLRDGSPYGIPQSPSSISSLPSHAPLLNGLDYTVDSNLGIIAHAGQGVSQTLRAMAGGPTSDISTGSSVGYPDFPTSPGSWLDEMDHPPF
partner: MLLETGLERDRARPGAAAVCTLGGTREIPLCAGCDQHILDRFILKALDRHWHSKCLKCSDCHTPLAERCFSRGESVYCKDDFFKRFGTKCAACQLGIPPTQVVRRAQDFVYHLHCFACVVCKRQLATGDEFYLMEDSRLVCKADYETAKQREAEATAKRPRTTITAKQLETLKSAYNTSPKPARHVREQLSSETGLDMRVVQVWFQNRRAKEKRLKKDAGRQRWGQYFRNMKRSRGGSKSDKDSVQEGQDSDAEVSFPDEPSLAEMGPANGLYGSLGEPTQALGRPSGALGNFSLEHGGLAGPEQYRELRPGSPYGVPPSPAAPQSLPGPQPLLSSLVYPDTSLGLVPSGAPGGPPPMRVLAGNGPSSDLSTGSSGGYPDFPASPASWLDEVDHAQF
B2: LIM/homeobox protein Lhx4 (Homo sapiens), Q969G2 (parent)
chain: B1 chain
partner: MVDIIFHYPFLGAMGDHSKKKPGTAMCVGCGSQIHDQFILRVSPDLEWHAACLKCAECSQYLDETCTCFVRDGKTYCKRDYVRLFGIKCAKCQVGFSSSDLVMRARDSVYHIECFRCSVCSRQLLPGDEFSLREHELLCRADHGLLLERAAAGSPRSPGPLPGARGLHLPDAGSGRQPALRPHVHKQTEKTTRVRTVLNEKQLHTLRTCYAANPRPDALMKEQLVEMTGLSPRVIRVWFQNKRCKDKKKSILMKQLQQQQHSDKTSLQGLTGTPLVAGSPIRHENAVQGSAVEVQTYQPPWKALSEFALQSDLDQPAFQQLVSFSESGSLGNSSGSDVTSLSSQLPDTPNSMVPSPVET

Variants of: B1
Conditions: with lhx3_human LHX3, Q9UBR4

Variant	effect of a mutation on the interaction
C57A;C60A	decreasing interaction strength
A65V	with no effect

Variants of: B2
Conditions: with isl2_human ISL2, Q96A47

Variant	effect of a mutation on the interaction
C57A;C60A	decreasing interaction strength
A65V	with no effect

Reference: IntAct's records for PubMed 27820671
